One data set concerns pancreatic cancer cells. The conditions noted are these: cited from earlier work.
Data set [1] in a line: NMR titration of CP-1 with DG12. It is filed as binding. The following applies: 1H–1H COSY, equimolar CP-1 and DG12, 20 mM, d6-DMSO, 25 °C.
A short description of data set [2]: Circular dichroism of DG12. The following applies: circular dichroism spectrum. It counts as physicochemical. Background: Circular dichroism is widely used to follow secondary structure.
The target in data set [3] is CP-1 (cyclic peptide 1). Put plainly: BLI. On the technique in general: Biolayer interferometry detects binding as a change in optical thickness at a sensor tip.
Data set [4] deals with CP-1 (cyclic peptide 1). Description: QCM-D.
The target in data set [5] is CP-1 (cyclic peptide 1). Put plainly: electrochemical impedance spectroscopy.
Data set [6] deals with CP-1 (cyclic peptide 1). Description: nanochannel device, transmembrane ionic current and Faraday current.

Results on three molecules are retold here after PMC10411628 (Chemical Science, 2023).

Regarding `Cc1sc(C(=O)c2cncnc2N[C@@H]2C[C@H](COS(N)(=O)=O)[C@@H](O)C2)cc1[C@@H]1NCCc2ccc(Cl)cc21` [TAK-981], in the data set on pancreatic cancer cells, the “effect on SUMOylation” value is given as “selectively reduces SUMOylation”.
On to DVIEVYQEQTGG [DG12], for which the “largest chemical shift changes upon complexation, protons of DG12” value in data set [1] was “H13 (isoleucine; C–H), H45 (glutamine; C–H), H51 (threonine; C–H), and H54 (glycine; N–H)”. Besides, the conformation result in data set [2] was “random coil conformation”.
In turn, DVIEVYQEQTGG [DG12, terminal dodecapeptide sequence of SUMO1] had a Kd with CP-1 (cyclic peptide 1) [3] of 5.86 µM. The molecule also displayed an adsorption amount in the data set with CP-1 (cyclic peptide 1) [4] of 142 ng cm^−2. The same molecule registered a Rct increase at 10 nM DG12 in the data set with CP-1 (cyclic peptide 1) [5] of 277%. Also, the transmembrane ionic current increase ratio at 1 × 10^−6 M DG12 with CP-1 (cyclic peptide 1) [6] came out at 84%.

In general, Kd refers to the concentration at which binding is half-saturated. The low end stands for a tighter complex, the high end for a looser complex.
